Results on one substance are retold here after PMC7173111.

This assay deals with HBc-YFP fusion protein (Hepatitis B virus) (UniProt P03146). Put plainly: FRET or BRET. For orientation: BRET reads energy transfer from a luciferase to a nearby fluorophore.
Chain of UniProt P03146 (P03146 whole entry, the tested form may be a part): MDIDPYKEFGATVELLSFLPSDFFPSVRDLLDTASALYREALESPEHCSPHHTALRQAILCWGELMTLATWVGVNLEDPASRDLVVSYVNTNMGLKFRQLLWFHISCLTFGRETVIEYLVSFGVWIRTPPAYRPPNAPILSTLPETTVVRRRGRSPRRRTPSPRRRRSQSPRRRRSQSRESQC

For “A3G-CFP fusion protein (from UniProt Q9HC16 1-384) (natural protein)”, the FRET efficiency (E EFF, %) turned out to be 18.5% and the FRET ratio (FR) came out at 1.68.
